Here are results for six molecules from patent US20140329706A1 (CALIFORNIA INSTITUTE OF TECHNOLOGY, published 2014).

The target in assay [1] is T1, MBP (control, expressed alone without a PDZ domain) (UniProt P0AEX9 27-392 = MBP). Nature of the assay: affinity chromatography on 2× nNOS PDZ-β-hairpin resin, SDS-PAGE.
Description: (§1) Resuspended cells were incubated on a shaking platform at low speed for 20 minutes at room temperature before the lysate was clarified by centrifugation at 16,000×g for 30 min at 4° C. […] The mixtures were then subjected to centrifugation at 1000×g for 2 min, and the supernatant was removed by pipetting. […] The cap was removed and the resin washed with 20 column volumes of Purification Buffer.
Assay [2] has as its target T2, GST (control, expressed alone without a PDZ domain) (UniProt P08515 1-218 = GST).
T2 construct: also called Glutathione S-Transferase
Briefly: affinity chromatography on 1× nNOS PDZ-β-hairpin resin, SDS-PAGE.
Description: as §1

For assay [3], the target named is T1, MBP (control, expressed alone without a …). The assay is described as above.
Description: as §1
For assay [4], the target named is T2, GST (control, expressed alone without a …). Nature of the assay: affinity pull-down from clarified E. coli lysate on PSD-95 PDZ2 resin, wash, elution with free SIESDV peptide (400 ug/ml), SDS-PAGE with GelCode Blue.
Description: as §1
The target is the same in assay [5]. Briefly: affinity chromatography on … peptide resin, SDS-PAGE.
Description: as §1
In assay [6] the target is T1, MBP (control, expressed alone without a …). The assay is described as above.
Description: as §1
The target in assay [7] is T3, HaloTag-PDZ1+PDZ2 fusion protein (residues 61 to 249 of Mus musculus PSD-95) (Mus musculus, UniProt Q62108 61-249).
T3 construct: range 61-249; also called PSD-95 PDZ1-PDZ2; not shown: HaloTag
Nature of the assay: affinity chromatography on HaloTag-PDZ1+PDZ2 resin, SIESDV peptide elution, SDS-PAGE.

T2 sequence (P08515 whole entry, the tested form may be a part): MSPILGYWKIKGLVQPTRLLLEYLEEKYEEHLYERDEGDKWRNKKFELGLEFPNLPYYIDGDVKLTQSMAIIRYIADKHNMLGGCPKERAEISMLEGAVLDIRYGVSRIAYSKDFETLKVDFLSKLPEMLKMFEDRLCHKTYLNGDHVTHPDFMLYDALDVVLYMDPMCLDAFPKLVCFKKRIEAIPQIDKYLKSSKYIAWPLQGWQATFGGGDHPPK

B1: 2× nNOS PDZ domain fusion protein that contains a BH after each nNOS PDZ domain (other)
chain: QPNVISVRLFKRKVGGLGFLVKERVSKPPVIISDLIRGGAAEQSGLIQAGDIILAVNDRPLVDLSYDSALEVLRGIASETHVVLILRGPEGFTTHLETTFTGDGTPKTIRVTQPLGTPTQPNVISVRLFKRKVGGLGFLVKERVSKPPVIISDLIRGGAAEQSGLIQAGDIILAVNDRPLVDLSYDSALEVLRGIASETHVVLILRGPEGFTTHLETTFTGDGTPKTIRVTQPLGTPT
notes: domain: nNOS PDZ domain with β-Hairpin; also called nNOS-BH-nNOS-BH; 2× nNOS PDZ-β-hairpin domains
Turning to B1, the binding result in assay [1] is recorded as “no binding”.

B2: nNOS PDZ domain (AA 11-129 of Mus musculus nNOS) (other, UniProt Q9Z0J4 11-129, looked up)
chain: IQPNVISVRLFKRKVGGLGFLVKERVSKPPVIISDLIRGGAAEQSGLIQAGDIILAVNDRPLVDLSYDSALEVLRGIASETHVVLILRGPEGFTTHLETTFTGDGTPKTIRVTQPLGTP
notes: range 11-129; also called 1× nNOS PDZ domain; 1× nNOS PDZ-β-hairpin domain
For B2, the binding result in assay [2] and in assay [3] was “no binding” throughout.

B3: PDZ2 domain of PSD-95 (other, UniProt Q62108 160-246, looked up)
chain: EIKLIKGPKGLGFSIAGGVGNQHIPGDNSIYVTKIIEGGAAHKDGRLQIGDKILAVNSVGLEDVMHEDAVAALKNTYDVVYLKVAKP
notes: domain: PDZ2; Species (Mus musculus) is stated only for the PDZ1+PDZ2 construct; also called PSD-95 PDZ2
As to B3, in assay [4], the binding result was “no binding”.

Take GAGSSIESDV (also called GluN2B ligand-NHS-Agarose) [NR2B (GluN2B) peptide ligand GAGSSIESDV]: the binding result in assay [5] and in assay [6] was “no binding” in each case.

B4: cypin (guanine deaminase, Homo sapiens: AA 1-454) (other, UniProt Q9Y2T3 1-454, looked up)
chain: MCAAQMPPLAHIFRGTFVHSTWTCPMEVLRDHLLGVSDSGKIVFLEEASQQEKLAKEWCFKPCEIRELSHHEFFMPGLVDTHIHASQYSFAGSSIDLPLLEWLTKYTFPAEHRFQNIDFAEEVYTRVVRRTLKNGTTTACYFATIHTDSSLLLADITDKFGQRAFVGKVCMDLNDTFPEYKETTEESIKETERFVSEMLQKNYSRVKPIVTPRFSLSCSETLMGELGNIAKTRDLHIQSHISENRDEVEAVKNLYPSYKNYTSVYDKNNLLTNKTVMAHGCYLSAEELNVFHERGASIAHCPNSNLSLSSGFLNVLEVLKHEVKIGLGTDVAGGYSYSMLDAIRRAVMVSNILLINKVNEKSLTLKEVFRLATLGGSQALGLDGEIGNFEVGKEFDAILINPKASDSPIDLFYGDFFGDISEAVIQKFLYLGDDRNIEEVYVGGKQVVPFSSSV
notes: range 1-454; also called untagged cypin
On to B4, for which, in assay [7], the binding result is “binds”.

B5: MBP-cypin (other, Homo sapiens, UniProt Q9Y2T3 1-454, looked up, not shown: large carriers)
chain: B4 chain
notes: range 1-454; also called cypin fused to an N-terminal MBP
As to B5, in assay [7], the binding result is listed as “binds”.
